Reference: patent publication US20120172293A1 (Takeda / Millennium, published 2012)
Non-standard residues stand in square brackets, D forms with d. No end group written: not given here. Phe(4-NH2) = Nc1ccc(C[C@H](N)C(=O)O)cc1; 1Nal = N[C@@H](Cc1cccc2ccccc12)C(=O)O; Arg(Me) = CNC(=N)NCCC[C@H](N)C(=O)O; Ala(cPr) = N[C@@H](CC1CC1)C(=O)O; 4Pal = N[C@@H](Cc1ccncc1)C(=O)O; Cha = N[C@@H](CC1CCCCC1)C(=O)O; Phg = N[C@H](C(=O)O)c1ccccc1; 4Amb = NCc1ccc(C(=O)O)cc1; Nle = CCCC[C@H](N)C(=O)O; Aib = CC(C)(N)C(=O)O

T1: human Y2 receptor (human, UniProt P49146 1-381)
T1 sequence (looked up): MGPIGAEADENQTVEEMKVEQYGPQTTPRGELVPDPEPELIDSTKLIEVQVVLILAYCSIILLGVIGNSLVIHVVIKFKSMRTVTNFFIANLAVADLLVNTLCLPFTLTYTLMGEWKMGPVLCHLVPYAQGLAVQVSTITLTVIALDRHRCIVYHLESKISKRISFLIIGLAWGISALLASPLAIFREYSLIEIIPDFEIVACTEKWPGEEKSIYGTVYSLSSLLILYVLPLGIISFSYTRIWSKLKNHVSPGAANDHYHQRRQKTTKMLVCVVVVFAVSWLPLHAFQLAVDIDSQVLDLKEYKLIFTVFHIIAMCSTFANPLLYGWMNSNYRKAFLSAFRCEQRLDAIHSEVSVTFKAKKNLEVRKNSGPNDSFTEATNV


Legend:
human Y2 receptor [1] = target: T1, human Y2 receptor; test: cell-based or functional assay
human Y2 receptor [2] = target: T1, human Y2 receptor; test: RBA: [125I]-PYY displacement, hY2R/CHO membranes
Outline: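 Bound radioligand was collected by filtration on PEI-treated GF/C filters, washed with Tris/MgCl₂/NaCl/CHAPS buffer pH 7.4, and counted by scintillation; IC₅₀ values were calculated.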

GBA EC50 Ratio (vs PYY(3-36)), [35S]GTPγS (human Y2 receptor [1]) [ratio] | IC50 Ratio (vs PYY(3-36)) (human Y2 receptor [2]) [ratio] | Binder
3 | 3.4 | [4Amb]RAYIN[1Nal]ITRQRY-NH2 (N-terminus assumed; SMILES CC[C@H](C)[C@H](NC(=O)[C@H](Cc1ccc(O)cc1)NC(=O)[C@H](C)NC(=O)[C@H](CCCNC(=N)N)NC(=O)c1ccc(CN)cc1)C(=O)N[C@@H](CC(N)=O)C(=O)N[C@@H](Cc1cccc2ccccc12)C(=O)N[C@H](C(=O)N[C@H](C(=O)N[C@@H](CCCNC(=N)N)C(=O)N[C@@H](CCC(N)=O)C(=O)N[C@@H](CCCNC(=N)N)C(=O)N[C@@H](Cc1ccc(O)cc1)C(N)=O)[C@@H](C)O)[C@@H](C)CC, also called compound No. 55) [4-Aminomethylbenzoyl-[Ala26, Ile28,31, Nal(1)30]-PYY(25-36)]
24 | 34 | [4Amb]KAYINLITRQRY-NH2 (N-terminus assumed; SMILES CC[C@H](C)[C@H](NC(=O)[C@H](Cc1ccc(O)cc1)NC(=O)[C@H](C)NC(=O)[C@H](CCCCN)NC(=O)c1ccc(CN)cc1)C(=O)N[C@@H](CC(N)=O)C(=O)N[C@@H](CC(C)C)C(=O)N[C@H](C(=O)N[C@H](C(=O)N[C@@H](CCCNC(=N)N)C(=O)N[C@@H](CCC(N)=O)C(=O)N[C@@H](CCCNC(=N)N)C(=O)N[C@@H](Cc1ccc(O)cc1)C(N)=O)[C@@H](C)O)[C@@H](C)CC, also called compound No. 49) [4-Aminomethylbenzoyl-[Lys25, Ala26, Ile28,31]-PYY(25-36)]
27 | 71 | [4Amb]RAYINL[Phg]TRQRY-NH2 (N-terminus assumed; SMILES CC[C@H](C)[C@H](NC(=O)[C@H](Cc1ccc(O)cc1)NC(=O)[C@H](C)NC(=O)[C@H](CCCNC(=N)N)NC(=O)c1ccc(CN)cc1)C(=O)N[C@@H](CC(N)=O)C(=O)N[C@@H](CC(C)C)C(=O)N[C@H](C(=O)N[C@H](C(=O)N[C@@H](CCCNC(=N)N)C(=O)N[C@@H](CCC(N)=O)C(=O)N[C@@H](CCCNC(=N)N)C(=O)N[C@@H](Cc1ccc(O)cc1)C(N)=O)[C@@H](C)O)c1ccccc1, also called compound No. 40) [4-Aminomethylbenzoyl-[Ala26, Ile28, Phg31]-PYY(25-36)]
4.1 | 8.1 | [4Amb]R[Ala(cPr)]YINLITRQRY-NH2 (N-terminus assumed; SMILES CC[C@H](C)[C@H](NC(=O)[C@H](Cc1ccc(O)cc1)NC(=O)[C@H](CC1CC1)NC(=O)[C@H](CCCNC(=N)N)NC(=O)c1ccc(CN)cc1)C(=O)N[C@@H](CC(N)=O)C(=O)N[C@@H](CC(C)C)C(=O)N[C@H](C(=O)N[C@H](C(=O)N[C@@H](CCCNC(=N)N)C(=O)N[C@@H](CCC(N)=O)C(=O)N[C@@H](CCCNC(=N)N)C(=O)N[C@@H](Cc1ccc(O)cc1)C(N)=O)[C@@H](C)O)[C@@H](C)CC, name prints Ile28,32; also called compound No. 48) [4-Aminomethylbenzoyl-[Ala(cPr)26, Ile28,32]-PYY(25-36)]
5.7 | 10 | [4Amb]RAYINL[Nle]TRQRY-NH2 (N-terminus assumed; SMILES CCCC[C@H](NC(=O)[C@H](CC(C)C)NC(=O)[C@H](CC(N)=O)NC(=O)[C@@H](NC(=O)[C@H](Cc1ccc(O)cc1)NC(=O)[C@H](C)NC(=O)[C@H](CCCNC(=N)N)NC(=O)c1ccc(CN)cc1)[C@@H](C)CC)C(=O)N[C@H](C(=O)N[C@@H](CCCNC(=N)N)C(=O)N[C@@H](CCC(N)=O)C(=O)N[C@@H](CCCNC(=N)N)C(=O)N[C@@H](Cc1ccc(O)cc1)C(N)=O)[C@@H](C)O, also called compound No. 42) [4-Aminomethylbenzoyl-[Ala26, Ile28, Nle31]-PYY(25-36)]
5.7 | 11 | [4Amb]RA[Phe(4-NH2)]INLITRQRY-NH2 (N-terminus assumed; SMILES CC[C@H](C)[C@H](NC(=O)[C@H](Cc1ccc(N)cc1)NC(=O)[C@H](C)NC(=O)[C@H](CCCNC(=N)N)NC(=O)c1ccc(CN)cc1)C(=O)N[C@@H](CC(N)=O)C(=O)N[C@@H](CC(C)C)C(=O)N[C@H](C(=O)N[C@H](C(=O)N[C@@H](CCCNC(=N)N)C(=O)N[C@@H](CCC(N)=O)C(=O)N[C@@H](CCCNC(=N)N)C(=O)N[C@@H](Cc1ccc(O)cc1)C(N)=O)[C@@H](C)O)[C@@H](C)CC, also called compound No. 52) [4-Aminomethylbenzoyl-[Ala26, Phe(4NH2)27, Ile28,31]-PYY(25-36)]
8.7 | 15 | [4Amb]RAYINL[Cha]TRQRY-NH2 (N-terminus assumed; SMILES CC[C@H](C)[C@H](NC(=O)[C@H](Cc1ccc(O)cc1)NC(=O)[C@H](C)NC(=O)[C@H](CCCNC(=N)N)NC(=O)c1ccc(CN)cc1)C(=O)N[C@@H](CC(N)=O)C(=O)N[C@@H](CC(C)C)C(=O)N[C@@H](CC1CCCCC1)C(=O)N[C@H](C(=O)N[C@@H](CCCNC(=N)N)C(=O)N[C@@H](CCC(N)=O)C(=O)N[C@@H](CCCNC(=N)N)C(=O)N[C@@H](Cc1ccc(O)cc1)C(N)=O)[C@@H](C)O, also called compound No. 41) [4-Aminomethylbenzoyl-[Ala26, Ile28, Cha31]-PYY(25-36)]
34 | 87 | [4Amb]RAYI[Aib]LITRQRY-NH2 (N-terminus assumed; SMILES CC[C@H](C)[C@H](NC(=O)[C@H](CC(C)C)NC(=O)C(C)(C)NC(=O)[C@@H](NC(=O)[C@H](Cc1ccc(O)cc1)NC(=O)[C@H](C)NC(=O)[C@H](CCCNC(=N)N)NC(=O)c1ccc(CN)cc1)[C@@H](C)CC)C(=O)N[C@H](C(=O)N[C@@H](CCCNC(=N)N)C(=O)N[C@@H](CCC(N)=O)C(=O)N[C@@H](CCCNC(=N)N)C(=O)N[C@@H](Cc1ccc(O)cc1)C(N)=O)[C@@H](C)O, also called compound No. 46) [4-Aminomethylbenzoyl-[Ala26, Ile28,31, Aib29]-PYY(25-36)]
2.6 | 3.8 | [4Amb]RA[4Pal]INLITRQRY-NH2 (N-terminus assumed; SMILES CC[C@H](C)[C@H](NC(=O)[C@H](Cc1ccncc1)NC(=O)[C@H](C)NC(=O)[C@H](CCCNC(=N)N)NC(=O)c1ccc(CN)cc1)C(=O)N[C@@H](CC(N)=O)C(=O)N[C@@H](CC(C)C)C(=O)N[C@H](C(=O)N[C@H](C(=O)N[C@@H](CCCNC(=N)N)C(=O)N[C@@H](CCC(N)=O)C(=O)N[C@@H](CCCNC(=N)N)C(=O)N[C@@H](Cc1ccc(O)cc1)C(N)=O)[C@@H](C)O)[C@@H](C)CC, also called compound No. 44) [4-Aminomethylbenzoyl-[Ala26, Pya(4)27, Ile28,31]-PYY(25-36)]
2.7 | 6 | [dA]SLRAYINLITRQ[Arg(Me)]Y-NH2 (N-terminus assumed; SMILES CC[C@H](C)[C@H](NC(=O)[C@H](Cc1ccc(O)cc1)NC(=O)[C@H](C)NC(=O)[C@H](CCCNC(=N)N)NC(=O)[C@H](CC(C)C)NC(=O)[C@H](CO)NC(=O)[C@@H](C)N)C(=O)N[C@@H](CC(N)=O)C(=O)N[C@@H](CC(C)C)C(=O)N[C@H](C(=O)N[C@H](C(=O)N[C@@H](CCCNC(=N)N)C(=O)N[C@@H](CCC(N)=O)C(=O)N[C@@H](CCCNC(=N)NC)C(=O)N[C@@H](Cc1ccc(O)cc1)C(N)=O)[C@@H](C)O)[C@@H](C)CC, also called compound No. 3) [[D-Ala22, Ala26, Ile28,31, Arg(Me)35]-PYY(22-36)]
7.5 | 18 | [4Amb]RA[Aib]INLITRQRY-NH2 (N-terminus assumed; SMILES CC[C@H](C)[C@H](NC(=O)[C@H](CC(C)C)NC(=O)[C@H](CC(N)=O)NC(=O)[C@@H](NC(=O)C(C)(C)NC(=O)[C@H](C)NC(=O)[C@H](CCCNC(=N)N)NC(=O)c1ccc(CN)cc1)[C@@H](C)CC)C(=O)N[C@H](C(=O)N[C@@H](CCCNC(=N)N)C(=O)N[C@@H](CCC(N)=O)C(=O)N[C@@H](CCCNC(=N)N)C(=O)N[C@@H](Cc1ccc(O)cc1)C(N)=O)[C@@H](C)O, also called compound No. 53) [4-Aminomethylbenzoyl-[Ala26, Aib27, Ile28,31]-PYY(25-36)]
23 | 49 | [4Amb]RAYIN[Aib]ITRQRY-NH2 (N-terminus assumed; SMILES CC[C@H](C)[C@H](NC(=O)[C@H](Cc1ccc(O)cc1)NC(=O)[C@H](C)NC(=O)[C@H](CCCNC(=N)N)NC(=O)c1ccc(CN)cc1)C(=O)N[C@@H](CC(N)=O)C(=O)NC(C)(C)C(=O)N[C@H](C(=O)N[C@H](C(=O)N[C@@H](CCCNC(=N)N)C(=O)N[C@@H](CCC(N)=O)C(=O)N[C@@H](CCCNC(=N)N)C(=O)N[C@@H](Cc1ccc(O)cc1)C(N)=O)[C@@H](C)O)[C@@H](C)CC, also called compound No. 47) [4-Aminomethylbenzoyl-[Ala26, Ile28,31, Aib30]-PYY(25-36)]
2.3 | 4.6 | [4Amb]RA[Nle]INLITRQRY-NH2 (N-terminus assumed; SMILES CCCC[C@H](NC(=O)[C@H](C)NC(=O)[C@H](CCCNC(=N)N)NC(=O)c1ccc(CN)cc1)C(=O)N[C@H](C(=O)N[C@@H](CC(N)=O)C(=O)N[C@@H](CC(C)C)C(=O)N[C@H](C(=O)N[C@H](C(=O)N[C@@H](CCCNC(=N)N)C(=O)N[C@@H](CCC(N)=O)C(=O)N[C@@H](CCCNC(=N)N)C(=O)N[C@@H](Cc1ccc(O)cc1)C(N)=O)[C@@H](C)O)[C@@H](C)CC)[C@@H](C)CC, also called compound No. 43) [4-Aminomethylbenzoyl-[Ala26, Nle27, Ile28,31]-PYY(25-36)]
